Laboratory results published in article PMC5034116 (Cell Research, 2016).

Biological target: the molecule itself
Assay: crystal structure

B1: NudC (residues 1-257, E178Q), Escherichia coli, active-site mutant (enzyme, UniProt P32664 1-257, looked up)
chain: MDRIIEKLDHGWWVVSHEQKLWLPKGELPYGEAANFDLVGQRALQIGEWQGEPVWLVQQQRRHDMGSVRQVIDLDVGLFQLAGRGVQLAEFYRSHKYCGYCGHEMYPSKTEWAMLCSHCRERYYPQIAPCIIVAIRRDDSILLAQHTRHRNGVHTVLAGFVEVGETLEQAVAREVMEQSGIKVKNLRYVTSQPWPFPQSLMTAFMAEYDSGDIVIDPKELLEANWYRYDDLPLLPPPGTVARRLIEDTVAMCRAEYE
stoichiometry N: 2
